Experimental data from the supplement of paper PMC10724198.
± gives the standard deviation of the averaged measurements.

Test system: Saccharomyces cerevisiae
Test: protein stability index of tFT-peptide fusion (C-terminal peptide) (PSI (0-1 scale)); higher = more stable (slower turnover)
Conditions: genetic background: wild type; temperature: 30 C
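Further: PSI is a weighted mean of sequencing reads over stability bins, variants kept only with over 10 reads, mCherry proximal and sfGFP distal, peptide attached via GGGS linker.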

Row | Sequence | protein stability index
1 | TKRRRKRRGAKK | 0.672 ± 0.014
2 | TKVCWNVDYNVL | 0.697 ± 0.012
3 | TKWAISRLHNSA | 0.64 ± 0.012
4 | TKYIGDGCVCSC | 0.645 ± 0.018
5 | TLCTKCNVFSCC | 0.682 ± 0.062
6 | TLFVAWTDCMSY | 0.6591 ± 0.0061
7 | TLIEWSAKGCRR | 0.693 ± 0.047
8 | TLKGERHKKNKR | 0.623 ± 0.035
9 | TLRKTTRHRRNA | 0.737 ± 0.069
10 | TLSLPPLHPPPH | 0.699 ± 0.0063
11 | TLSPPPALASPL | 0.71 ± 0.037
12 | TLTTVLSPHSHR | 0.716 ± 0.0073
13 | TLVALGFIYASG | 0.572 ± 0.0048
14 | TLYKSEQIAFFL | 0.644 ± 0.047
15 | TMLIGTAQAVNN | 0.604 ± 0.026
16 | TNALVGEWVGLG | 0.795 ± 0.11
17 | TNANKKNGRGNT | 0.683 ± 0.041
18 | TNKRKNIRTKQR | 0.638 ± 0.037
19 | TPASAGLACILL | 0.672 ± 0.013
20 | TPGGRTLATALR | 0.676 ± 0.018
21 | TPHAPTATPRDN | 0.727 ± 0.076
22 | TPLAPASPPAAR | 0.717 ± 0.056
23 | TPLPPLPPHPPS | 0.727 ± 0.0087
24 | TPNLQPLPRNLD | 0.765 ± 0.037
25 | TPPCACTPPRAP | 0.686 ± 0.081
26 | TPQSLRDAHGSC | 0.662 ± 0.056

Row | Sequence | protein stability index
27 | TPRASLSATSRS | 0.719 ± 0.016
28 | TPRTNATAMCTP | 0.72 ± 0.038
29 | TPSYSPPSRHDP | 0.634 ± 0.093
30 | TPTRRIIPHTHP | 0.685 ± 0.086
31 | TQARDTIPGAKV | 0.678 ± 0.02
32 | TQEKKGKIRGGI | 0.685 ± 0.0085
33 | TQSPANIIQRKT | 0.672 ± 0.024
34 | TQTLPPPLPPLL | 0.675 ± 0.02
35 | TQWRSRRHLKPQ | 0.72 ± 0.032
36 | TQYINTAHKELK | 0.6677 ± 0.00083
37 | TQYTDNQTPITK | 0.6673 ± 0.0027
38 | TRAKVQSRGSLS | 0.708 ± 0.039
39 | TRCKRNETCTSG | 0.669 ± 0.046
40 | TRECGRLRQAET | 0.723 ± 0.067
41 | TRHPGGERIPTY | 0.743 ± 0.12
42 | TRIRLQKNVITL | 0.683 ± 0.014
43 | TRLGWSWGFAHR | 0.719 ± 0.11
44 | TRREQYSSSNLV | 0.674 ± 0.04
45 | TRRKKKKNTGTK | 0.71 ± 0.022
46 | TRRLEFPEPPMS | 0.708 ± 0.061
47 | TRSGGNGYERVC | 0.667 ± 0.03
48 | TSCFIWGCACCR | 0.656 ± 0.058
49 | TSEIGKEINYRK | 0.66 ± 0.017
50 | TSFLRSPPPPRL | 0.763 ± 0.012
51 | TSGRTLVNDKCT | 0.716 ± 0.012
52 | TSIFRIICLTDR | 0.642 ± 0.022

Row | Sequence | protein stability index
53 | TSKPGLQIPRRE | 0.747 ± 0.047
54 | TSKTLHKTNNIK | 0.698 ± 0.028
55 | TSPLSPAPPPPR | 0.641 ± 0.083
56 | TSPPPGTHTLQP | 0.626 ± 0.023
57 | TSQASIRDLTNK | 0.579 ± 0.016
58 | TTPHTSFTILHP | 0.696 ± 0.087
59 | TTPRAILPLSSI | 0.67 ± 0.043
60 | TTSRTRVAHPPI | 0.622 ± 0.071
61 | TVGSVAREGPFW | 0.696 ± 0.025
62 | TVLTDKKGRVRS | 0.71 ± 0.0093
63 | TVMSDCQTDQAS | 0.657 ± 0.065
64 | TVNHKHALQFAT | 0.681 ± 0.091
65 | TVRLAPCPLSDT | 0.744 ± 0.075
66 | TVVSFMFCPSLT | 0.667 ± 0.061
67 | TWGLGVFSIMDC | 0.633 ± 0.052
68 | TWPGRAGGRGAT | 0.721 ± 0.1
69 | TWRWVGGRWSGL | 0.5601 ± 0.0026
70 | TYATPSLVFPLL | 0.695 ± 0.011
71 | TYPSWIYELNKT | 0.753 ± 0.077
72 | TYQVVPRDAPYV | 0.672 ± 0.025
73 | TYVSKCRLYEPA | 0.644 ± 0.011
74 | VAAFGGGRTNGV | 0.724 ± 0.024
75 | VAAQRYAQRLFT | 0.652 ± 0.021
76 | VACYVDWSQNHR | 0.728 ± 0.06
77 | VAGFVPSWVALW | 0.643 ± 0.1
78 | VALEFLGWVGLS | 0.684 ± 0.094

Row | Sequence | protein stability index
79 | VALHRIPVTVSR | 0.578 ± 0.026
80 | VALLKCTGTAQI | 0.61 ± 0.033
81 | VAPDSARVFHFV | 0.64 ± 0.025
82 | VARCWGGLGLAR | 0.692 ± 0.047
83 | VARPEWWSGGGS | 0.727 ± 0.03
84 | VARPMHFIRYGK | 0.716 ± 0.018
85 | VARRGLFLSISW | 0.596 ± 0.088
86 | VASFLRFRLPPQ | 0.71 ± 0.083
87 | VASPAPALRPPL | 0.746 ± 0.093
88 | VAVDGSDQGGTR | 0.64 ± 0.079
89 | VAVGHWGIVPLW | 0.725 ± 0.08
90 | VAVMPKPLGVVR | 0.552 ± 0.046
91 | VAVWGAIRHASN | 0.718 ± 0.033
92 | VCARAGRALEDS | 0.674 ± 0.08
93 | VCAVRVGGGGEG | 0.601 ± 0.04
94 | VCFLFGLVGFGS | 0.597 ± 0.0085
95 | VCGGRLVGWGGW | 0.729 ± 0.1
96 | VCGSGGGCWGGG | 0.622 ± 0.0096
97 | VCICDRLASRDV | 0.733 ± 0.067
98 | VCNFQIGGDRGV | 0.71 ± 0.052
99 | VCRCWGGKGQDS | 0.71 ± 0.012
100 | VCRGRGGEGIGW | 0.721 ± 0.096
101 | VCRVGGVMAGDT | 0.669 ± 0.049
102 | VCSLTFFGLCRP | 0.69 ± 0.025
103 | VCSYISGRKSVL | 0.568 ± 0.0048
104 | VCVCSVPNLGLW | 0.675 ± 0.029

Row | Sequence | protein stability index
105 | VCVSCTPALLFL | 0.608 ± 0.056
106 | VDGRIYIGIISR | 0.677 ± 0.032
107 | VDSPFPTPLPLI | 0.685 ± 0.087
108 | VDWVEAYVCVGV | 0.538 ± 0.024
109 | VEASRSCTKLDG | 0.675 ± 0.02
110 | VEDRTTNVLNIT | 0.682 ± 0.027
111 | VEGFVPEDGKEE | 0.684 ± 0.024
112 | VELEPPVCVFLL | 0.6391 ± 0.0017
113 | VEQSYKESVNLD | 0.682 ± 0.017
114 | VESDREPIFGCA | 0.65467 ± 0.00014
115 | VEVRVRCVGGRV | 0.703 ± 0.068
116 | VFACDTRHWSFD | 0.796 ± 0.019
117 | VFARKARGFDDV | 0.7188 ± 0.0065
118 | VFAVGRPGRGVV | 0.648 ± 0.014
119 | VFGPRSIARGAI | 0.727 ± 0.12
120 | VFHLFSAVSLRL | 0.592 ± 0.0084
121 | VFITSLWTPLLL | 0.617 ± 0.019
122 | VFLRGSVLGLCI | 0.606 ± 0.034
123 | VFLRSGCSGGGE | 0.799 ± 0.063
124 | VFLTASVLVAPF | 0.575 ± 0.015
125 | VFPPTPPTVPRG | 0.727 ± 0.0077
126 | VFPWRDSNLYAS | 0.713 ± 0.021
127 | VFRPFVLPLMFP | 0.611 ± 0.053
128 | VFSARVVGGVLF | 0.681 ± 0.011
129 | VFSTFGSCHICC | 0.636 ± 0.033
130 | VFVCFMSHLRGS | 0.58 ± 0.012

Row | Sequence | protein stability index
131 | VFVPCIFRQIAG | 0.6096 ± 0.0019
132 | VFYVGGGAVVRG | 0.689 ± 0.023
133 | VFYVGGGSVVRG | 0.663 ± 0.011
134 | VGAGRGKGRGGG | 0.617 ± 0.013
135 | VGASRFRLSNCF | 0.677 ± 0.02
136 | VGCLGGCGCGGV | 0.716 ± 0.07
137 | VGCQAIESRLHL | 0.737 ± 0.077
138 | VGCSGGRGAGVV | 0.649 ± 0.018
139 | VGCSGVYIWGNL | 0.707 ± 0.015
140 | VGDIGLEVKLFF | 0.72 ± 0.0076
141 | VGDPHPIMQSLL | 0.773 ± 0.049
142 | VGEVAGRWCGRG | 0.7 ± 0.025
143 | VGFGEGCLSFPF | 0.668 ± 0.072
144 | VGFRMAMVVGGL | 0.519 ± 0.026
145 | VGFSVLGGRAGW | 0.712 ± 0.044
146 | VGGGAVRAWGLR | 0.688 ± 0.028
147 | VGGGGAVDGRSG | 0.7298 ± 0.0025
148 | VGGGLGGGVVLV | 0.6993 ± 0.0011
149 | VGGGPVWREPGT | 0.796 ± 0.025
150 | VGGGRGGVVRSG | 0.654 ± 0.1
151 | VGGRDDGFVWEG | 0.667 ± 0.031
152 | VGGRDWADSLVV | 0.772 ± 0.015
153 | VGGVVWIGGVVG | 0.667 ± 0.074
154 | VGIRTFFRFRMR | 0.6692 ± 0.0014
155 | VGKCGSGCLHST | 0.6313 ± 0.004
156 | VGLTGFSQLGDG | 0.675 ± 0.032

Row | Sequence | protein stability index
157 | VGPCGGVGHLGS | 0.73 ± 0.036
158 | VGPRGFYSFVGG | 0.665 ± 0.014
159 | VGRENNENREEE | 0.629 ± 0.021
160 | VGRPGGVAQHRG | 0.734 ± 0.077
161 | VGSCGAPRLPWP | 0.732 ± 0.038
162 | VGSFVGSREGVW | 0.613 ± 0.029
163 | VGSGEWTRAMNR | 0.673 ± 0.062
164 | VGSLCSRLGRRS | 0.765 ± 0.13
165 | VGSLFGFGGRWV | 0.645 ± 0.0082
166 | VGSPPVWAAVWG | 0.614 ± 0.12
167 | VGSVVRGLVGPY | 0.717 ± 0.19
168 | VGTSVTSSFRGK | 0.591 ± 0.078
169 | VGVAREGQVGAA | 0.694 ± 0.024
170 | VGVCLVSLGSWL | 0.605 ± 0.013
171 | VGVGAGQWVVWY | 0.682 ± 0.028
172 | VGVGWWVGLWGL | 0.693 ± 0.011
173 | VGVPFLVVGVGV | 0.583 ± 0.00081
174 | VGVSLVLPDWDV | 0.693 ± 0.053
175 | VGWGECPKVECV | 0.599 ± 0.1
176 | VGWGWGGGVVLV | 0.692 ± 0.0098
177 | VGYGTGGAVGVE | 0.691 ± 0.041
178 | VHCGTEPRGPRH | 0.709 ± 0.027
179 | VHENVGSGYNLE | 0.734 ± 0.14
180 | VHPRFSFGPHFV | 0.7027 ± 0.00094
181 | VHRKGGRLEILG | 0.64 ± 0.033
182 | VHRRRVSVGGGA | 0.721 ± 0.05

Row | Sequence | protein stability index
183 | VHSGKGRQAKER | 0.715 ± 0.048
184 | VIACLCGGVMWV | 0.577 ± 0.0008
185 | VIEWFVRGRVGG | 0.7032 ± 0.00085
186 | VIGWACLCFGAI | 0.555 ± 0.0063
187 | VILCPVCFPEEK | 0.66459 ± 0.00057
188 | VIMGRGGGNVGG | 0.701 ± 0.053
189 | VIMNPGNDFLQK | 0.702 ± 0.011
190 | VINKHYINKCQG | 0.638 ± 0.088
191 | VIPSCMVFSSTG | 0.71 ± 0.049
192 | VITAYHSLTYGA | 0.6878 ± 0.0038
193 | VITCGLVLRSVR | 0.652 ± 0.031
194 | VITFPAFLPISN | 0.702 ± 0.017
195 | VIVRAFRWNLVR | 0.605 ± 0.029
196 | VKTGIKQSLTEP | 0.6982 ± 0.0037
197 | VKTSRASLSGKL | 0.805 ± 0.12
198 | VLAPPPLLPPPY | 0.6843 ± 0.0021
199 | VLCIYKLSQVRL | 0.654 ± 0.049
200 | VLFGLSTSSLCL | 0.644 ± 0.075
201 | VLFHWAGFFLFL | 0.525 ± 0.029
202 | VLFPSPSPPLSS | 0.7 ± 0.0071
